Test results from patent US20260265354A1 (JIANGSU MABWELL HEALTH PHARMACEUTICAL R AND D, published 2026).

Experiments:
Nectin-like-5 = biological target: T1, Nectin-like-5 (UniProt P15151 21-343); assay: ELISA, coated antigen
T1 construct: Bought recombinant protein; also called CD155; PVR
T1 sequence (looked up): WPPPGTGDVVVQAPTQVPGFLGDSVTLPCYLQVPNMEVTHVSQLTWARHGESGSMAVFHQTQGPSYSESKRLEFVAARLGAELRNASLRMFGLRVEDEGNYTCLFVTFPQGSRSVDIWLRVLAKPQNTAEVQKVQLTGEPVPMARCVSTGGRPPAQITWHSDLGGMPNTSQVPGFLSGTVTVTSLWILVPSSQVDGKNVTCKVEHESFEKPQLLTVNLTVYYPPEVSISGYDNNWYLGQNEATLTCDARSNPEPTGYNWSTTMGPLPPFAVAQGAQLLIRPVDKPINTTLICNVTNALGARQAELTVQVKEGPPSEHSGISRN

Nectin-like-4 = biological target: T2, Nectin-like-4 (UniProt Q8NFZ8 21-324, limits assumed); assay: ELISA, coated antigen
T2 construct: Bought recombinant protein; also called CADM4; IgSF4C
T2 sequence (looked up): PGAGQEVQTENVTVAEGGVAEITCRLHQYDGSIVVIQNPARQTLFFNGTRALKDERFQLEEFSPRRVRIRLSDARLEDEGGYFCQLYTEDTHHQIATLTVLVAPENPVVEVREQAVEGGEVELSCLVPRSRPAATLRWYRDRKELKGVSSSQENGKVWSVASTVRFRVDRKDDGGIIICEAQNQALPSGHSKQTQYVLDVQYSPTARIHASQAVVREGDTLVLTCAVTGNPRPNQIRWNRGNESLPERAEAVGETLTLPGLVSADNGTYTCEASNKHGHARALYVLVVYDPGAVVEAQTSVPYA

Nectin-like-3 [1] = biological target: T3, Nectin-like-3 (UniProt Q8N3J6 25-367, limits assumed); assay: ELISA, coated antigen
T3 construct: Bought recombinant protein; also called CADM2; IgSF4D
T3 sequence (looked up): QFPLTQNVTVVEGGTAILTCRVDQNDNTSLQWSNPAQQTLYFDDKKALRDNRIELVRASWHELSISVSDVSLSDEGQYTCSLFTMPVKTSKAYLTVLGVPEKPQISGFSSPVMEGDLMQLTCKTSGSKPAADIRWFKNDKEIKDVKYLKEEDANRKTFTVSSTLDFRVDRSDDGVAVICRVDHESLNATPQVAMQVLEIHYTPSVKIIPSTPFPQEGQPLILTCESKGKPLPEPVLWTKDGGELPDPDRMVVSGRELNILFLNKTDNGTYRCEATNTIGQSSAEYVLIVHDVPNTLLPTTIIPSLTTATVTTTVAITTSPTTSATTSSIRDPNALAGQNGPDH

Nectin-1 = biological target: T4, Nectin-1 (UniProt Q15223 31-334, limits assumed); assay: ELISA, coated antigen
T4 construct: Bought recombinant protein; also called CD111; PVRL-1
T4 sequence (looked up): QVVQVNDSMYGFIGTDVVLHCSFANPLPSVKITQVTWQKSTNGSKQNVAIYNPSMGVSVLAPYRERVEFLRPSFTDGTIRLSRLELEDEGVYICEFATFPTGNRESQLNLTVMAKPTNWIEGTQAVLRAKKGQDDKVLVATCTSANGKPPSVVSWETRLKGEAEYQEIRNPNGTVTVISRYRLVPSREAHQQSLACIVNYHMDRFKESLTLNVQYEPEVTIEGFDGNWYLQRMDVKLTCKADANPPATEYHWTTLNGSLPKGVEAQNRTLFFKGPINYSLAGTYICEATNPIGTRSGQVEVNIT

[2] = biological target: T5, recombinant human Nectin-4 protein (human, UniProt Q96NY8 32-349); assay: ELISA, coated antigen, antibody at 10000 ng/ml
T5 construct: Prepared in-house (Jiangsu Mabwell) by transient transfection of CHO cells; also called PVRL-4; PRR-4
T5 sequence: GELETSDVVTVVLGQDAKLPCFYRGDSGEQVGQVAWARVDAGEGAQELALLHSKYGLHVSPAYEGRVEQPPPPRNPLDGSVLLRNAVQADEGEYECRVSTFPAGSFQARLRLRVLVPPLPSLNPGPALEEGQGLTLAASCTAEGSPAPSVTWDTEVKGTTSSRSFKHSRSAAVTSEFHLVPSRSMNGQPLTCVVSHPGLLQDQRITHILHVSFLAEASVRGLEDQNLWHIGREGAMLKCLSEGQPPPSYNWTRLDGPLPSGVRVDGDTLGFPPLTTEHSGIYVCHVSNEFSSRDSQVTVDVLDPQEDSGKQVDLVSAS
Method: (§1) Coating: Nectin-1, Nectin-2, Nectin-3, Nectin-4, Nectin-like-1, Nectin-like-2, Nectin-like-3, Nectin-like-4, and Nectin-like-5 were diluted to 5 μg/ml in coating buffer (carbonate buffer, pH 9.6) respectively. A 96-well plate was coat with 100 μl per well and incubated overnight at 2-8° C.;
(§2) Sample loading: The plate was taken out, patted dry, and washed twice with 200 μl/well of PBST, then patted dry. The Nectin-4 antibodies prepared in Example 1 (antibody MM11, antibody R012, and antibody R036) were diluted with 1% BSA/PBST to concentrations of 10 μg/ml, 1 μg/ml, 100 ng/ml, and 10 ng/ml, respectively. 1% BSA/PBST solution for dilution was set as a blank control. 100 μl per well was added to the 96-well plate, and incubated at room temperature for 2 hours;
(§3) Reaction termination and plate reading: 100 μl/well of 1 mol/L H3PO4 was added to terminate the reaction and the plated was read. The absorbances of wells in the plate at 450 nm with 650 nm as reference wavelength were read and recorded as OD_{450 nm-650 nm}.

Nectin-like-3 [3] = biological target: T3, Nectin-like-3; assay: ELISA, coated antigen, antibody at 10000 ng/ml
Method: as §1, §2, §3

Nectin-3 = biological target: T6, Nectin-3 (UniProt Q9NQS3 58-404, limits assumed); assay: ELISA, coated antigen, antibody at 10000 ng/ml
T6 construct: Bought recombinant protein; also called CD113; PVRL-3
Method: as §1, §2, §3

Nectin-like-2 = biological target: T7, Nectin-like-2 (UniProt Q9BY67 45-374, limits assumed); assay: ELISA, coated antigen, antibody at 10000 ng/ml
T7 construct: Bought recombinant protein; also called CADM1; IgSF4
T7 sequence (looked up): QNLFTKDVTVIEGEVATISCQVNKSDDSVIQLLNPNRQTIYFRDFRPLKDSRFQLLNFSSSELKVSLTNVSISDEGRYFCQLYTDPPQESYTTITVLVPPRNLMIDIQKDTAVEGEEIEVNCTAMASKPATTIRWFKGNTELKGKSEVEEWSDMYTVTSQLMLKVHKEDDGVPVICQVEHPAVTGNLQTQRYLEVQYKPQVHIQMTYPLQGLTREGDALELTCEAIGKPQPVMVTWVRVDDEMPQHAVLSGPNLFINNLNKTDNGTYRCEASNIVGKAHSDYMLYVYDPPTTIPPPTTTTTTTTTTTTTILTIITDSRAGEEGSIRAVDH
Method: as §1, §2, §3

T6 sequence (Q9NQS3 58-404 limits assumed): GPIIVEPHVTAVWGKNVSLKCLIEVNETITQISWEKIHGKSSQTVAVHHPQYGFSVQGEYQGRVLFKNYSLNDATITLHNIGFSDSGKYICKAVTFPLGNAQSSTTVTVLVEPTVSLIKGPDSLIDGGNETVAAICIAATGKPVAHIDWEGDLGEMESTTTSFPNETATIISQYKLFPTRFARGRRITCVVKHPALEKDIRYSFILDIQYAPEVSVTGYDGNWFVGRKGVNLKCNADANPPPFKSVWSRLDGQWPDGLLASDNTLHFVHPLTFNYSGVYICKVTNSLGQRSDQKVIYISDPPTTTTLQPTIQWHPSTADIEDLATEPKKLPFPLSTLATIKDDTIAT

B1: Antibody MM11 (antibody, mouse IgG1, kappa, V domains shown)
VH: DVQLQESGPGLVKPSQSLSLTCSVTGYSITSNFYWNWIRQFPGNRLEWMGYISYDGSNNYNPSLKNRISISRDTSKNQFFLKLNSVTTEDTATYYCVRADYWGQGTLVTVSA
VL: DTVMTQTPLSLPVSLGDQASISCRSSQSLESSDGHAYLNWYLQKPGQSPQLLIYRVSNRFSGVLHRFSGSGSGTDFTLKISRVEAEDLGVYFCLQFTHVPFTFGSGTKLEIKR
notes: Mouse monoclonal antibody from hybridoma; also called Nectin-4 mouse monoclonal antibody MM11; mouse antibody MM11
binding result (Nectin-like-5): no binding (tested: 10000 ng/ml) | binding result (Nectin-like-4): no binding (tested: 10000 ng/ml) | binding result (Nectin-like-3 [1]): no binding (tested: 10000 ng/ml) | binding result (Nectin-1): no binding (tested: 10000 ng/ml) | OD detection value [2]: 1.97 OD450 nm-650 nm | OD detection value (Nectin-like-3 [3]): 0.032 OD450 nm-650 nm | OD detection value (Nectin-3): 0.006 OD450 nm-650 nm | OD detection value (Nectin-like-2): 0.005 OD450 nm-650 nm

B2: Antibody R012 (antibody, V domains shown)
VH: SKSVEESGGRLVTPGTPLTLTCTVSGFSLSTYAMSWVRQAPGKGLEYIGIISGRGTTYYASWLKGRFTISKTSTTVDLKITSPTTEDTATYFCARDAGISDVYTGYFNLWGQGTLVTVSS
VL: QPVLAQLPSASAALGASAKLTCTLSSAHRTYTIAWYQQQQGEAPRYLMMLKSDGSYTKGTGVPDRFSGSSSGADRYLIISSVQAADEADYYCGADDSGGYVFGGGTQLTVTG
notes: Rabbit monoclonal antibody from phage display; also called Nectin-4 rabbit monoclonal antibody R012; rabbit antibody R012
binding result (Nectin-like-5): no binding (tested: 10000 ng/ml) | binding result (Nectin-like-4): no binding (tested: 10000 ng/ml) | binding result (Nectin-like-3 [1]): no binding (tested: 10000 ng/ml) | binding result (Nectin-1): no binding (tested: 10000 ng/ml) | OD detection value [2]: 1.51 OD450 nm-650 nm | OD detection value (Nectin-like-3 [3]): 0.009 OD450 nm-650 nm | OD detection value (Nectin-3): 0.007 OD450 nm-650 nm | OD detection value (Nectin-like-2): 0.009 OD450 nm-650 nm

B3: Antibody R036 (antibody, V domains shown)
VH: SQSVEESGGRLVTPGTPLTLTCTVSGFSLSSYAMSWVRQAPGKGLEYIGIIGGRGTTYYAIWAKGRFTISKTSTTVDLKITSPTTEDTATYFCARDAGTTYVGTTYVATGYFNLWGQGTLVTVSS
VL: QPVLTQPPSASAALGASAKLTCTLSSAHKTYTIAWYQQQQGEAPRYLMILKSDGSYTRGTGVPDRFSGSSSGADRYLIISSVQADDEADYYCGADDSGGYVFGGGTQLTVTG
notes: Rabbit monoclonal antibody from phage display; also called Nectin-4 rabbit monoclonal antibody R036; rabbit antibody R036
binding result (Nectin-like-5): no binding (tested: 10000 ng/ml) | binding result (Nectin-like-4): no binding (tested: 10000 ng/ml) | binding result (Nectin-like-3 [1]): no binding (tested: 10000 ng/ml) | binding result (Nectin-1): no binding (tested: 10000 ng/ml) | OD detection value [2]: 1.63 OD450 nm-650 nm | OD detection value (Nectin-like-3 [3]): 0.008 OD450 nm-650 nm | OD detection value (Nectin-3): 0.008 OD450 nm-650 nm | OD detection value (Nectin-like-2): 0.008 OD450 nm-650 nm
